Results on 4 substances are retold here after patent US10976317B2, “Systematic discovery, maturation and extension of peptide binders to proteins” (Roche Sequencing Solutions, Inc., priority 2013, dated 2021).

The experiment addresses T1, human prostate specific antigen (PSA) (Homo sapiens, UniProt P07288).
T1 construct: biotin (chemical label, NHS-PEG4-biotin on amines)
As to the kind of experiment: PSA binding assay on 5-mer peptide array (biotin-labelled PSA, Streptavidin Cy5 staining, fluorescence signal). The conditions noted are these: 5-mer Array; rank in the list of 405 sequences with the highest average signal intensity; PSA 100 ng/ml, 25° C., 12 hrs. The source says: Array Design: 5-mer array was designed by using all combinations of 18 natural amino acids excluding cysteine and methionine, any dimer or a longer repeat of the same amino acid, as well as any peptide containing HR, RH, HK, KH, RK, KR, HP, and PQ sequences to create a library of 1,360,732 unique peptides. Extension Arrays were designed by extending sequences selected from 5-mer arrays experiments by two amino acids from both N- and C-terminus using all 20 natural amino acids. Double Substitution/Deletion Arrays were designed by extension of sequences identified in the extension array experiments with glycine (G) amino acid to make them 11-mer peptides and creating a library that includes all possible single- and double substitution/deletion variants of the original sequence.
Array Synthesis: 5-mer Arrays were synthesized with 5 cycles of synthesis using a mixture of G and S amino acids in a 3:1 ratio, respectively at the N- and C-terminus of each of the 5-mer peptide. Extension and Double Substitution/Deletion Arrays were synthesized directly without using flanking wobble synthesis.
Binding Assay: PSA labelled with biotin using EZ-Link NHS-PEG4-biotinylation kit (Thermo Fisher Sci., Inc. Rockford, Ill.) was incubated in SecureSeal hybridization chamber (Grace Bio-Labs, Bend, Ore.) at concentration 100 ng/ml in 1×TE binding buffer with 1% alkali soluble casein at 25° C. for 12 hrs. Array was washed 3× with 1×TE buffer and stained with Streptavidin Cy5 in 1× binding buffer with 1% alkali soluble casein at 25° C. for 1 hr, and washed 3× with 1×TE buffer and finally with 0.1×TE buffer and scanned using a 2 micrometer MS200 scanner (Roche/Nimblegen, Madison, Wis.).
Data analysis: Image analysis and signal extraction performed using NimbleGen DEVA software, and peptides with fluorescent signal are identified. The 5-mer sequences for the binding peptides are identified and clustered based on distances using the standard BLOSUM 62 substitution matrix as implemented by an R package ‘PEPLIB’ (see, White et al., 2013, cited above). The distances of the 5-mer peptides are plotted on the first two components of a PCA plot. Consensus motifs for each cluster are reported in the graph.

T1 sequence (P07288 25-261): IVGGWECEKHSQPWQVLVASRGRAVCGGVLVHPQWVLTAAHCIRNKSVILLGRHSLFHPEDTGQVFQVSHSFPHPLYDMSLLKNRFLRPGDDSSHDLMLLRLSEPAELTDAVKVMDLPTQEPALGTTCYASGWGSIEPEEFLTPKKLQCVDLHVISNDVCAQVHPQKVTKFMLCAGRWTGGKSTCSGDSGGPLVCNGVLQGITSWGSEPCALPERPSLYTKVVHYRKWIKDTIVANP

Take FEVYL: the “rank by binding signal to PSA” value came out at 1.

Regarding WEVHL, the “rank by binding signal to PSA” value is 28.

As to WTVYA, the “rank by binding signal to PSA” value turned out to be 3.

RSILY: the “rank by binding signal to PSA” value turned out to be 307.
